From the RNAGym collection of RNA variant scans (doi:10.7554/elife.80360)

B1: HDV Ribozyme (parent)
chain: GGCCGGCAUGGUCCCAGCCUCCUCGCUGGCGCCGGCUGGGCAACAUUCCGAGGGGACCGUCCCCUCGGUAAUGGCGAAUGGGACCCA

Variants of: B1
Experiment: self-cleavage, relative activity (ratio to wild type); higher = more cleavage; co-transcriptional

In order of rising self-cleavage:
1. GGCCGGCAUGGUCCCAGCCUCCUCGCUGGCGCCGGCAGCGCAACAUUCCGAGGGGACCGUCCCCUCGGUAAUGGCGAAUGGGACCCA [U37A G39C]  0
2. GGCCGGCAUGGUCCCAGCCUCCUCGCUGGCGCCGGCAGGGCAACAUUCCGAGGGGACCGUCCCCUCGGUAAUGGCGAAGGGGACCCA [U37A U79G]  0
3. GGCCGGCAUGGUCCCAGCCUCCUCGCUGGCGCCGGCAGGGCAACAUUCCGAGGGGACCGUCCCCUCGGUAACGGCGAAUGGGACCCA [U37A U72C]  0
4. GGCCGGCAUGGUCCCAGCCUCCUCGCUGGCGCCGGCAGGGCAACAUUCCGAGGGGACCGUCCCCUCGGUAAUGGCGAAUGGGACGCA [U37A C85G]  0.0346
5. GGCCGGCAUGGUCCCAGCCUCCUCGCUGGCGCCGGCAGGGCAACAUUCCGAGGGGACCGUCCCCUCGGUAAUAGCGAAUGGGACCCA [U37A G73A]  0.0346
6. GGCCGGCAUGGUCCCAGCCUCCUCGCUGGCGCCGGCAGGGCAACAUUCCGAGGGGACCGUCCCCUCGGUAAUCGCGAAUGGGACCCA [U37A G73C]  0.0378
7. GGCCGGCAUGGUCCCAGCCUCCUCGCUGGCGCCGGCAGGGCAACAUUCCGAGGGGACCGUCCCCUCGGUAAUGGCGAAUGGCACCCA [U37A G82C]  0.0405
8. GGCCGGCAUGGUCCCAGCCUCCUCGCUGGCGCCGGCAGGGCAACAUUCCGAGGGGACCGUCCCCUCGCUAAUGGCGAAUGGGACCCA [U37A G68C]  0.0405
9. GGCCGGCAUGGUCCCAGCCUCCUCGCUGGCGCCGGCAGGGCAACAUUCCCAGGGGACCGUCCCCUCGGUAAUGGCGAAUGGGACCCA [U37A G50C]  0.0489
10. GGCCGGCAUGGUCCCAGCCUCCUCGCUGGCGCCGGCAGGCCAACAUUCCGAGGGGACCGUCCCCUCGGUAAUGGCGAAUGGGACCCA [U37A G40C]  0.0519
11. GGCCGGCAUGGUCCCAGCCUCCUCGCUGGCGCCGGCAGGGCAACAUUCCGAGAGGACCGUCCCCUCGGUAAUGGCGAAUGGGACCCA [U37A G53A]  0.0594
12. GGCCGGCAUGGUCCCAGCCUCCUCGCUGGCGCCGGCAGGGCAACAUUCCGAGGGGACCGUCCCCUCGGUAAUGGCGAACGGGACCCA [U37A U79C]  0.0623
13. GGCCGGCAUGGUCCCAGCCUCCUCGCUGGCGCCGGCAGGGCAACAUUCCGAGGGGACCGUCCCCUCGGUAAUGGAGAAUGGGACCCA [U37A C75A]  0.0707
14. GGCCGGCAUGGUCCCAGCCUCCUCGCUGGCGCCGGCAGGGCAACAUUCCGAGGGGACCGUCCCCUCGGUAAUGGCGAAUUGGACCCA [U37A G80U]  0.0727
15. GGCCGGCAUGGUCCCAGCCUCCUCGCUGGCGCCGGCAGGGCAACACUCCGAGGGGACCGUCCCCUCGGUAAUGGCGAAUGGGACCCA [U37A U46C]  0.0852
16. GGCCGGCAUGGUCCCAGCCUCCUCGCUGGCGCCGGCAGGGCAACAUUCCGAGGGGACCGUCCCCUCGGUAAUGGGGAAUGGGACCCA [U37A C75G]  0.0852
17. GGCCGGCAUGGUCCCAGCCUCCUCGCUGGCGCCGGCAAGGCAACAUUCCGAGGGGACCGUCCCCUCGGUAAUGGCGAAUGGGACCCA [U37A G38A]  0.086
18. GGCCGGCAUGGUCCCAGCCUCCUCGCUGGCGCCGGCAGGGCAACAUUCCGAGGGGACCGUCCCCUCGGUAAUGGCGAAUGUGACCCA [U37A G81U]  0.0875
19. GGCCGGCAUGGUCCCAGCCUCCUCGCUGGCGCCGGCAGGGCAACAUUCCGAGGGGACCGUCCCCUCGGUAAUGGCGAAUGGGACCCG [U37A A87G]  0.0989
20. GGCCGGCAUGGUCCCAGCCUCCUCGCUGGCGCCGGCAGGGCAACAUUCCGAGGGGACCGUCCCCUCGGAAAUGGCGAAUGGGACCCA [U37A U69A]  0.101
21. GGCCGGCAUGGUCCCAGCCUCCUCGCUGGCGCCGGCAGGGCAACAUUCCGAGGGGACCGACCCCUCGGUAAUGGCGAAUGGGACCCA [U37A U60A]  0.111
22. GGCCGGCAUGGUCCCAGCCUCCUCGCUGGCGCCGGCAGGGCAACAUUCCGAGGGGACCGUCCACUCGGUAAUGGCGAAUGGGACCCA [U37A C63A]  0.116
23. GGCCGGCAUGGUCCCAGCCUCCUCGCUGGCGCCGGCAGGGCAACAUUCCUAGGGGACCGUCCCCUCGGUAAUGGCGAAUGGGACCCA [U37A G50U]  0.128
24. GGCCGGCAUGGUCCCAGCCUCCUCGCUGGCGCCGGCAGGGCAACAUUCCGAGGGGACCGUCCCCUCGGUAAUGGCGAAUGGGAACCA [U37A C84A]  0.128
25. GGCCGGCAUGGUCCCAGCCUCCUCGCUGGCGCCGGCAGGGCAACAGUCCGAGGGGACCGUCCCCUCGGUAAUGGCGAAUGGGACCCA [U37A U46G]  0.128
26. GGCCGGCAUGGUCCCAGCCUCCUCGCUGGCGCCGGCAGGGCAACAUUCCGAGGGGACCGUCCCCUCGGUAAUGGUGAAUGGGACCCA [U37A C75U]  0.128
27. GGCCGGCAUGGUCCCAGCCUCCUCGCUGGCGCCGGCAGGGCAACAUUCCGAGGGGACCGUCCCCUCGGUAAUGGCGAGUGGGACCCA [U37A A78G]  0.131
28. GGCCGGCAUGGUCCCAGCCUCCUCGCUGGCGCCGGCAGGGCAACAUUCCGAAGGGACCGUCCCCUCGGUAAUGGCGAAUGGGACCCA [U37A G52A]  0.145
29. GGCCGGCAUGGUCCCAGCCUCCUCGCUGGCGCCGGCAGGGCAACAUUCCGAGGGGACCGUCCCCUCGGUAAUGGCGAAUAGGACCCA [U37A G80A]  0.145
30. GGCCGGCAUGGUCCCAGCCUCCUCGCUGGCGCCGGCAGGGCAACAUUGCGAGGGGACCGUCCCCUCGGUAAUGGCGAAUGGGACCCA [U37A C48G]  0.148
31. GGCCGGCAUGGUCCCAGCCUCCUCGCUGGCGCCGGCAGGGCAACAUUCCGAGGGGACCGUCGCCUCGGUAAUGGCGAAUGGGACCCA [U37A C62G]  0.151
32. GGCCGGCAUGGUCCCAGCCUCCUCGCUGGCGCCGGCAUGGCAACAUUCCGAGGGGACCGUCCCCUCGGUAAUGGCGAAUGGGACCCA [U37A G38U]  0.151
33. GGCCGGCAUGGUCCCAGCCUCCUCGCUGGCGCCGGCAGGGCAACAUUCUGAGGGGACCGUCCCCUCGGUAAUGGCGAAUGGGACCCA [U37A C49U]  0.155
34. GGCCGGCAUGGUCCCAGCCUCCUCGCUGGCGCCGGCAGGUCAACAUUCCGAGGGGACCGUCCCCUCGGUAAUGGCGAAUGGGACCCA [U37A G40U]  0.157
35. GGCCGGCAUGGUCCCAGCCUCCUCGCUGGCGCCGGCAGGGCAACAUUCCGAGGGGACCGUCCCCUGGGUAAUGGCGAAUGGGACCCA [U37A C66G]  0.158
36. GGCCGGCAUGGUCCCAGCCUCCUCGCUGGCGCCGGCAGGGCAACAUUCCGAGGGGACCGUCCCCUCGGUAAUGACGAAUGGGACCCA [U37A G74A]  0.166
37. GGCCGGCAUGGUCCCAGCCUCCUCGCUGGCGCCGGCAGGGCAACAUUCCGAGGGGACCGUCCCCUCGGUAAUGGCGAAUGGGACCCC [U37A A87C]  0.17
38. GGCCGGCAUGGUCCCAGCCUCCUCGCUGGCGCCGGCAGGGCAACAUUCCGAGGGGACCGUCCGCUCGGUAAUGGCGAAUGGGACCCA [U37A C63G]  0.17
39. GGCCGGCAUGGUCCCAGCCUCCUCGCUGGCGCCGGCAGGGCAACAUUCCGAGGGGACCGUCCCUUCGGUAAUGGCGAAUGGGACCCA [U37A C64U]  0.185
40. GGCCGGCAUGGUCCCAGCCUCCUCGCUGGCGCCGGCAGGGCAACAAUCCGAGGGGACCGUCCCCUCGGUAAUGGCGAAUGGGACCCA [U37A U46A]  0.185
41. GGCCGGCAUGGUCCCAGCCUCCUCGCUGGCGCCGGCAGGGCAACAUUCCGAGGGGACCGCCCCCUCGGUAAUGGCGAAUGGGACCCA [U37A U60C]  0.192
42. GGCCGGCAUGGUCCCAGCCUCCUCGCUGGCGCCGGCAGGGCAACAUUCGGAGGGGACCGUCCCCUCGGUAAUGGCGAAUGGGACCCA [U37A C49G]  0.201
43. GGCCGGCAUGGUCCCAGCCUCCUCGCUGGCGCCGGCAGGGCAACAUACCGAGGGGACCGUCCCCUCGGUAAUGGCGAAUGGGACCCA [U37A U47A]  0.201
44. GGCCGGCAUGGUCCCAGCCUCCUCGCUGGCGCCGGCAGGGCAACAUUCCGAUGGGACCGUCCCCUCGGUAAUGGCGAAUGGGACCCA [U37A G52U]  0.214
45. GGCCGGCAUGGUCCCAGCCUCCUCGCUGGCGCCGGCAGGGCAACAUUCCGAGGGGACCGUCCCCUCAGUAAUGGCGAAUGGGACCCA [U37A G67A]  0.215
46. GGCCGGCAUGGUCCCAGCCUCCUCGCUGGCGCCGGCAGGGCAACAUUCCGAGGGGACCCUCCCCUCGGUAAUGGCGAAUGGGACCCA [U37A G59C]  0.224
47. GGCCGGCAUGGUCCCAGCCUCCUCGCUGGCGCCGGCAGGGCAACAUUCCGAGGGGACCGUCCCCCCGGUAAUGGCGAAUGGGACCCA [U37A U65C]  0.225
48. GGCCGGCAUGGUCCCAGCCUCCUCGCUGGCGCCGGCAGGGCAACAUUCCGAGGGGACCGUCCCCUCGGUAAUUGCGAAUGGGACCCA [U37A G73U]  0.225
49. GGCCGGCAUGGUCCCAGCCUCCUCGCUGGCGCCGGCAGGGCAACAUUCCGAGGGGACAGUCCCCUCGGUAAUGGCGAAUGGGACCCA [U37A C58A]  0.225
50. GGCCGGCAUGGUCCCAGCCUCCUCGCUGGCGCCGGCAGGGCAACAUUCCGAGGGGACCGUCCCCUCGGUAAUGGCGAAUGCGACCCA [U37A G81C]  0.227
51. GGCCGGCAUGGUCCCAGCCUCCUCGCUGGCGCCGGCAGGGAAACAUUCCGAGGGGACCGUCCCCUCGGUAAUGGCGAAUGGGACCCA [U37A C41A]  0.237
52. GGCCGGCAUGGUCCCAGCCUCCUCGCUGGCGCCGGCAGGGCAACAUUCCGAGGGGACCAUCCCCUCGGUAAUGGCGAAUGGGACCCA [U37A G59A]  0.237
53. GGCCGGCAUGGUCCCAGCCUCCUCGCUGGCGCCGGCAGGGCAACAUUUCGAGGGGACCGUCCCCUCGGUAAUGGCGAAUGGGACCCA [U37A C48U]  0.237
54. GGCCGGCAUGGUCCCAGCCUCCUCGCUGGCGCCGGCAGGGCAACAUUCCGAGGGGACCGUCCCCUCGGUAAUGGCGAAUGGGACUCA [U37A C85U]  0.259
55. GGCCGGCAUGGUCCCAGCCUCCUCGCUGGCGCCGGCAGGGCAACAUUCCGAGGGGACCGUCCCCUCUGUAAUGGCGAAUGGGACCCA [U37A G67U]  0.272
56. GGCCGGCAUGGUCCCAGCCUCCUCGCUGGCGCCGGCAGGGCAACAUUCCGAGGGCACCGUCCCCUCGGUAAUGGCGAAUGGGACCCA [U37A G55C]  0.299
57. GGCCGGCAUGGUCCCAGCCUCCUCGCUGGCGCCGGCAGGGCAACAUUCCGAGUGGACCGUCCCCUCGGUAAUGGCGAAUGGGACCCA [U37A G53U]  0.302
58. GGCCGGCAUGGUCCCAGCCUCCUCGCUGGCGCCGGCAGGGCAACAUUCCGAGGCGACCGUCCCCUCGGUAAUGGCGAAUGGGACCCA [U37A G54C]  0.308
59. GGCCGGCAUGGUCCCAGCCUCCUCGCUGGCGCCGGCAGGGCAACAUUCCGAGGGGACCGUCCCCUCGGUAAUGGCGAAUGGGACCCU [U37A A87U]  0.325
60. GGCCGGCAUGGUCCCAGCCUCCUCGCUGGCGCCGGCAGGGCAACAUUCCGAGGGGACCGUCCCGUCGGUAAUGGCGAAUGGGACCCA [U37A C64G]  0.354
61. GGCCGGCAUGGUCCCAGCCUCCUCGCUGGCGCCGGCAGGGCAACAUUCCGAGGGGACCGUCCCCUCGAUAAUGGCGAAUGGGACCCA [U37A G68A]  0.381
62. GGCCGGCAUGGUCCCAGCCUCCUCGCUGGCGCCGGCAGGGCAACAUUCCGAGGGGACUGUCCCCUCGGUAAUGGCGAAUGGGACCCA [U37A C58U]  0.405
63. GGCCGGCAUGGUCCCAGCCUCCUCGCUGGCGCCGGCAGGGCAACAUUCCGAGGGGACCGUCCCCUCGGCAAUGGCGAAUGGGACCCA [U37A U69C]  0.415
64. GGCCGGCAUGGUCCCAGCCUCCUCGCUGGCGCCGGCCGGGCGACAUUCCGAGGGGACCGUCCCCUCGGUAAUGGCGAAUGGGACCCA [U37C A42G]  0.795
